# Results from patent US20250082771A1, “DOSAGE REGIMEN OF AN ANTI-CDH6 ANTIBODY-DRUG CONJUGATE” (DAIICHI SANKYO COMPANY, LIMITED, priority 2022, published 2025).
# Legend:
# Type in all cases: in vivo, human
# [1] = test system: OVC subjects; experiment: Phase 1 dose escalation and expansion parts as of new cut-off date: tumor response, ORR and PFS
# Method: (§1) The dose expansion part of the Phase 1 study was a multicenter, open-label, multiple-dose, first-in-human study of DS-6000a, which enrolled subjects in the United States (see clinicaltrials.gov identifier NCT 04707248). DS-6000a was administered intravenously every 3 weeks. The dose expansion part included administering to RCC and OVC subjects at RDEs. Initially, dose of 8.0 mg/kg was expanded, subsequently, the 6.4, 5.6 and 4.8 mg/kg doses were added as RDEs (FIG. 12).
# (§2) Objective response rate (ORR), clinical benefit rate (CBR), and disease control rate (DCR) were summarized with 95% confidence intervals (CI) using the Clopper-Pearson method; duration of response (DOR) and progression-free survival (PFS) were summarized using the Kaplan-Meier method. Safety endpoints, PK parameters and plasma anti-drug antibodies were summarized using descriptive statistics.
# (§3) After the initial data-cut, additional patients were enrolled in Phase 1 (both escalation and expansion), bringing the overall number of participants to sixty-seven (N=67). The demographic and baseline characteristics of the patient enrolled in dose escalation and expansion parts of the Phase 1 study as of new cut-off date are shown in FIG. 13. Subjects ranged in age from 34 to 83 years with a median age of 63 years. A median of 4 prior lines of therapy was administered. The prior lines of therapy comprise a platinum-based chemotherapeutic, a chemotherapeutic, a PARP inhibitor, an immune checkpoint inhibitor, an angiogenic inhibitor and a VEGFR-TKI. The subjects were 25.4% RCC, 74.6% OVC and 64.2% had Eastern Cooperative Oncology Group performance status (ECOG PS) of 1.
# One confirmed CR and 14 confirmed PR were observed among 44 evaluable OVC subjects at doses ranging from 1.6 to 9.6 mg/kg. SD was reported for 24 subjects (FIG. 17).
# [2] = test system: CA-125; experiment: Phase 1 dose escalation and expansion parts as of new cut-off date: CA-125 response
# Excerpt: (§4) Secondary objectives included characterizing the pharmacokinetic (PK) properties of DS-6000a, total anti-CDH6 antibody, drug component and assessing the immunogenicity. Exploratory objectives included evaluating biomarker that correlate with efficacy and disease assessment in OVC using Gynecologic Cancer Intergroup (GCIG) criteria.
# [3] = test system: CA-125; experiment: Phase 1 dose escalation part: CA-125 response (GCIG criteria)
# Excerpt: as §4
# [4] = test system: RCC and OVC subjects; experiment: Phase 1 dose escalation and expansion parts as of new cut-off date: safety and tolerability
# Method: as §1
# The primary objective of the dose expansion part was to evaluate the safety, tolerability, and efficacy at the RDEs.
# Patient assessments included echocardiogram or multigated acquisition scan, 12-lead electrocardiogram, AEs, PK, human anti-human antibodies, biomarkers, and tumor assessments at prespecified visits.
# as §2, §3
# Subjects had received DS-6000a as monotherapy with a median treatment duration of 15.4 weeks (range 3.0 to 93.9 weeks). The number of patients in the dose escalation and expansion parts of the Phase 1 study as of new cut-off date with TEAE, which occurred in […] of patients, regardless of causality, is shown in FIG. 14.
# [5] = test system: RCC and OVC subjects; experiment: Phase 1 dose escalation part: tumor response per RECIST V1.1
# Method: (§5) The dose escalation part of the Phase 1 study was a multicenter, open-label, multiple-dose, first-in-human study of DS-6000a, which enrolled subjects in the United States (see clinicaltrials.gov identifier NCT 04707248). DS-6000a was administered intravenously every 3 weeks. In the dose escalation part, RCC and OVC subjects were enrolled and dose-limiting toxicity (DLT) was assessed during Cycle 1.
# (§6) Patient assessments included echocardiogram or multigated acquisition scan, 12-lead electrocardiogram, AEs, PK, human anti-human antibodies, biomarkers, and tumor assessments at prespecified visits. The demographic and baseline characteristics of the patient enrolled in this dose escalation part of the Phase 1 study are shown in FIG. 2.
# (§7) For this dose escalation part of the Phase 1 study, Bayesian optimal interval (BOIN) design was used to estimate the MTD. Accelerated titration, treat a single subject at a dose level, was performed until any DLT or ≥Grade 2 AE possibly related to DS-6000a (excluding infusion-related reactions) is observed during Cycle 1. Objective response rate (ORR), clinical benefit rate (CBR), and disease control rate (DCR) were summarized with 95% confidence intervals (CI) using the Clopper-Pearson method; duration of response (DOR) and progression-free survival (PFS) were summarized using the Kaplan-Meier method. Safety endpoints, PK parameters and plasma anti-drug antibodies were summarized using descriptive statistics.
# [6] = test system: RCC and OVC subjects; experiment: Phase 1 dose escalation part: safety and tolerability (TEAEs, DLT, RDE)
# Method: as §5
# The primary objective of the dose escalation part was to investigate the safety and tolerability and determine the maximum-tolerated dose (MTD) and/or recommended dose for expansion (RDE).
# as §6, §7
# [7] = among 44 evaluable OVC subjects, 1.6 to 9.6 mg/kg, new cut-off date
# [8] = dose escalation and expansion parts, new cut-off date, N=67
# [9] = dose escalation part, among 24 efficacy evaluable patients
substance,measurement,setting,value
DS-6000a: anti-CDH6 antibody (SEQ ID NO: 69 positions 20-471; SEQ ID NO: 61 positions 21-233) bound via thioether bond to drug linker; DAR 7 to 8,preliminary efficacy signals by dose,"[1]; 4.8 and 6.4 mg/kg compared to 8.0 mg/kg, small sample size",better preliminary efficacy signals
same,median PFS,"[1]; OVC subjects, 3.2 mg/kg",13.9 months
same,median PFS,"[1]; OVC subjects, 4.8 mg/kg",7.9 months
same,median PFS,"[1]; OVC subjects, 6.4 mg/kg",5.8 months
same,median PFS,"[1]; OVC subjects, 8.0 mg/kg",5.6 months
same,median PFS,"[1]; OVC subjects, doses ranging from 1.6 to 9.6 mg/kg",5.8 months
same,dose-effect on efficacy,"[1]; OVC subjects, higher dosing group, FIG. 16",consistent and pronounced reduction in tumor size
same,ORR compared to current standard of care (single-agent chemotherapies) in platinum resistant ovarian cancer,"[1]; OVC subjects, new cut-off date",Higher ORR
same,PFS compared to current standard of care (single-agent chemotherapies) in platinum resistant ovarian cancer,"[1]; OVC subjects, new cut-off date",Longer PFS
same,ORR,"[1]; among 41 evaluable OVC subjects with measurable disease at baseline, 1.6 to 9.6 mg/kg",36.6%
same,confirmed CR,[1]; [7],One
same,confirmed PR,[1]; [7],14
same,CA-125 response rates among dose levels,[2]; OVC patients,High CA-125 response rates
same,CA-125 reductions,"[2]; OVC subjects, FIG. 18",deep and durable
same,patients showed CA-125 responder,"[2]; among 28 efficacy evaluable OVC patients, at least 50% reduction in CA-125 from baseline, confirmed and maintained at least 28 days",15 patients
same,durability of CA-125 responses,[3]; FIG. 8,durable
same,patients showed CA-125 responder,"[3]; among 17 efficacy evaluable OVC patients, at least 50% reduction in CA-125 from baseline, confirmed and maintained at least 28 days",8 patients
same,CA-125 response rates by dose level,[3]; dose level of 4.8 to 9.6 mg/kg,Higher CA-125 response rates
same,fatal cases,[4]; 8.0 mg/kg,3
same,tolerability,"[4]; 8.0 mg/kg, frequent dose reduction/interruption compared to lower doses",not tolerated
same,doses at which well tolerated,"[4]; dose escalation and expansion parts, new cut-off date",up to 6.4 mg/kg
same,most frequently reported Grade 23 events,[4]; [8],hematological events
same,severity of the majority of the gastrointestinal events,[4]; [8],Grade 1 or 2
same,most frequently reported TEAEs,"[4]; dose escalation and expansion parts, new cut-off date, N=67, monotherapy","gastrointestinal events (nausea, vomiting and diarrhea), fatigue, decreased appetite and hematological events (anaemia, neutrophil count decreased and platelet count decreased)"
same,"time stayed in treatment, one patient with SD","[5]; dose escalation part, 8.0 mg/kg",more than 180 days
same,tumor shrinkage in target lesion,"[5]; dose escalation part, 3.2, 4.8, 6.4, 8.0 and 9.6 mg/kg dose levels",Tumor shrinkages were observed
same,durability of tumor responses,"[5]; dose escalation part, FIG. 6",durable
same,PRs based on RECIST V1.1,"[5]; dose escalation part, RCC, among 24 efficacy evaluable patients",one
same,best percent change in sum of longest dimensions from baseline (tumor reduction),"[5]; dose escalation part, a patient in the 9.6 mg/kg dosing group",68.8%
same,Non-CR/Non-PDs,[5]; [9],2
same,"PRs (including single point PRs, not yet confirmed responses) based on RECIST V1.1",[5]; [9],6
same,stable diseases (SDs),[5]; [9],12
same,PRs based on RECIST V1.1,"[5]; dose escalation part, platinum-resistant OVC, among 24 efficacy evaluable patients",five
same,maximum decrease in tumor size,"[5]; one clear cell RCC patient, 3 prior therapies including ICI and VEGFR-TKI, 3.2 mg/kg, 51.4 weeks following initiation of treatment",64.3%
same,maximum decrease in tumor size,"[5]; one platinum-resistant OVC patient, 3 prior therapies including bevacizumab and PARP inhibitor, 6.4 mg/kg, 40.4 weeks following initiation of treatment",35.7%
same,patients discontinued due to PD per RECIST V1.1,[6]; 1.6 mg/kg,1 patients
same,patients discontinued due to clinical progression,[6]; 3.2 mg/kg,1 patients
same,patients discontinued due to death,[6]; 3.2 mg/kg,One
same,patients required dose interruption,[6]; 3.2 mg/kg,1 patients
same,patients discontinued due to clinical progression,[6]; 4.8 mg/kg,1 patients
same,patients required dose interruption,[6]; 4.8 mg/kg,2 patients
same,patients discontinued due to PD per RECIST V1.1,[6]; 6.4 mg/kg,2 patients
same,patients discontinued due to clinical progression,[6]; 6.4 mg/kg,1 patients
same,patients required dose interruption,[6]; 6.4 mg/kg,3 patients
same,patients discontinued due to PD per RECIST V1.1,[6]; 8.0 mg/kg,2 patients
same,patients discontinued due to clinical progression,[6]; 8.0 mg/kg,1 patients
same,patients required dose interruption,[6]; 8.0 mg/kg,1 patients
same,patients required dose reduction,[6]; 8.0 mg/kg,1 patients
same,patients discontinued due to adverse event,[6]; 9.6 mg/kg,One
same,patients required dose interruption,[6]; 9.6 mg/kg,2 patients
same,patients required dose reduction,[6]; 9.6 mg/kg,2 patients
same,DLTs,"[6]; 9.6 mg/kg, Cycle 1, Gr3 febrile neutropenia and Gr4 platelet count decreased",Two
same,serious TEAEs considered drug-related,[6]; Grade 3 anaemia and Grade 3 febrile neutropenia at 9.6 mg/kg,Two
same,RDE (recommended dose for expansion),[6]; IV every 3 weeks,8.0 mg/kg
same,grade of serious TEAEs,[6]; N=30,all events are Grade 3
same,patients with serious TEAEs,[6]; N=30 (4/30),13.3%
same,patients reported Grade 23 related TEAE,"[6]; N=30 (7/30), drug-related",23.3%
same,patients reported Grade 23 TEAE,"[6]; N=30 (10/30), regardless of causality",33.3%
same,patients discontinued from treatment,[6]; N=30 (13 patients),43.3%
same,patients with drug-related TEAEs,[6]; N=30 (25 patients),83.3%
same,patients reported 21 TEAE,"[6]; N=30 (26/30), regardless of causality, IV every 3 weeks",86.7%
same,patients discontinued due to PD per RECIST V1.1,"[6]; N=30, all dose levels",5 patients
same,patients discontinued due to clinical progression,"[6]; N=30, all dose levels",Four
same,patients required dose interruption,"[6]; N=30, all dose levels",Nine
same,patients required dose reduction,"[6]; N=30, all dose levels",three
same,Grade 23 related TEAE neutrophil count decreased,"[6]; N=30, drug-related",16.7%
same,related TEAE decreased appetite,"[6]; N=30, drug-related",20.0%
same,related TEAE fatigue,"[6]; N=30, drug-related",56.7%
same,related TEAE nausea,"[6]; N=30, drug-related",60.0%
same,related TEAE neutrophil count decreased,"[6]; N=30, drug-related",23.3%
same,related TEAE vomiting,"[6]; N=30, drug-related",30.0%
same,Grade 23 TEAE anaemia,"[6]; N=30, regardless of causality",10.0%
same,Grade 23 TEAE hypokalemia,"[6]; N=30, regardless of causality",10.0%
same,Grade 23 TEAE neutrophil count decreased,"[6]; N=30, regardless of causality",16.7%
same,TEAE decreased appetite,"[6]; N=30, regardless of causality",40.0%
same,TEAE diarrhoea,"[6]; N=30, regardless of causality",20.0%
same,TEAE fatigue,"[6]; N=30, regardless of causality",63.3%
same,TEAE nausea,"[6]; N=30, regardless of causality",60.0%
same,TEAE neutrophil count decreased,"[6]; N=30, regardless of causality",23.3%
same,TEAE vomiting,"[6]; N=30, regardless of causality",46.7%
same,tolerability,[6]; as of data cut off,generally well tolerated
